Experimental data reported in patent US20110177070A1 (EMERGENT PRODUCT DEVELOPMENT SEATLLE, published 2011).

B1: Xceptor fusion protein TRU(XT6)-1006 (Fc fusion)
chain: LPAQVAFTPYAPEPGSTCRLREYYDQTAQMCCSKCSPGQHAKVFCTKTSDTVCDSCEDSTYTQLWNWVPECLSCGSRCSSDQVETQACTREQNRICTCRPGWYCALSKQEGCRLCAPLRKCRPGFGVARPGTETSDVVCKPCAPGTFSNTTSSTDICRPHQICNVVAIPGNASMDAVCTSTSPTRSMAPGAVHLPQPVSTRSQHTQPTPEPSTAPSTSFLLPMGPSPPAEGSTGDTGEPKSSDKTHTCPPCPAPEAAGAPSVFLFPPKPKDTLMISRTPEVTCVVVDVSHEDPEVKFNWYVDGVEVHNAKTKPREEQYNSTYRVVSVLTVLHQDWLNGKAYACAVSNKALPAPIEKTISKAKGQPREPQVYTLPPSRDELTKNQVSLTCLVKGFYPSDIAVEWESNGQPENNYKTTPPVLDSDGSFFLYSKLTVDKSRWQQGNVFSCSVMHEALHNHYTQKSLSLSPGQRHNNSSLNTRTQKARHSPNSEVQLLESGGGLVQPGGSLRLSCAASGFTFSQYNMIWVRQAPGKGLEWVSWISSSGGTEYADSVKGRFTISRDNSKNTLYLQMNSLRAEDTAVYYCAKDRGYGSGSYGAYDAFDIWGQGTMVTVSSGGGGSGGGGSGGGGSQDIQMTQSPSSLSASVGDRVTITCQTSQSIDRYLNWYQQKAGEAPKLLIYAASSLQSGVPSRFSGSGSGTDFTLTISSLQPEDFASYYCQQSYRTPRTFGQGTKVEIK
notes: Xceptor TNFRSF1B::anti-HIL6
B2: recombinant human sIL-6R (receptor)
chain: LAPRRCPAQEVARGVLTSLPGDSVTLTCPGVEPEDNATVHWVLRKPAAGSHPSRWAGMGRRLLLRSVQLHDSGNYSCYRAGRPAGTVHLLVDVPPEEPQLSCFRKSPLSNVVCEWGPRSTPSLTTKAVLLVRKFQNSPAEDFQEPCQYSQESQKFSCQLAVPEGDSSFYIVSMCVASSVGSKFSKTQTFQGCGILQPDPPANITVTAVARNPRWLSVTWQDPHSWNSSFYRLRFELRYRAERSKTFTTWMVKDLQHHCVIHDAWSGLRHVVQLRAQEEFGQGEWSEWSPEAMGTPWTESRSPPAENEVSTPMQALTTNKDDDNILFRDSANATSLPVQD
notes: Bought soluble receptor; also called human soluble IL6R; IL6R alone

Tests used:
recombinant human TNF-α = target: T1, recombinant human TNF-α (human, UniProt P01375 77-233); assay: dual-ligand ELISA: plate-coated HIL-6, Xceptor, 2 ng/ml TNF-α, anti-human TNF-α-biotin
T1 construct: also called rhTNF-α
T1 sequence (P01375 77-233 limits assumed): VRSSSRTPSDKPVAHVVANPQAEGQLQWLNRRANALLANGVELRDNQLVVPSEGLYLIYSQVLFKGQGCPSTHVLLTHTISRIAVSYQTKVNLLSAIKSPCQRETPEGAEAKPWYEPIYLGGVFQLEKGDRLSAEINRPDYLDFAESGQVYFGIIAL
Procedure: Added to each well of a 96-well plate was 100 μl human HIL-6 solution (5 μg/ml in PBS, pH 7.2-7.4). The plate was covered, and incubated overnight at 4° C. After washing four times with PBS-T, then 250 μl Blocking buffer was added to each well, the plate was covered, and incubated at room temperature for 2 hours (or at 4° C. overnight). After washing the plate three times with PBS-T, added in duplicate wells to the HIL-6 coated plate was 100 μl/well Xceptor TNFRSF1B::HIL6 samples serially diluted three-fold in Working buffer starting at 300 ng/ml. Negative controls included human gp130-Fc chimera (R&D Systems, Minneapolis, Minn.), Enbrel® (etanercept), and Working buffer only. The plate was covered and incubated at room temperature for 1.5 hours. After washing the plate five times with PBS-T, 100 μl per well recombinant human TNF-α (R&D Systems, Minneapolis, Minn.) to 2 ng/ml in Working buffer was added, the plate was covered, and incubated at room temperature for 1.5 hr. After washing the plate five times with PBS-T, 100 μl per well anti-human TNF-α-biotin (R&D Systems) to 200 ng/ml in Working buffer was added, the plate was covered, and incubated at room temperature for 1.5 hr. […] The absorbance of each well was read at 450 nm.

[1] = target: Xceptor fusion protein TRU(XT6)-1042; assay: sandwich ELISA: Xceptor captured on anti-human IgG-Fc, sIL-6R, anti-human IL-6R-biotin
Procedure: Added to each well of a 96-well plate was 100 μl goat anti-human IgG-Fc (ICN Pharmaceuticals, Costa Mesa, Calif.) from a 2 μg/ml solution in PBS, pH 7.2-7.4, The plates were covered, and incubated overnight at 4° C. After washing four times with PBS-T, 250 μl Blocking buffer (PBS-T with 3% BSA or 10% normal goat serum) was added to each well, the plate was covered, and incubated at room temperature for 2 hours (or at 4° C. overnight). After washing the plate three times with PBS-T, added in duplicate wells to the anti-human IgG-Fc coated plate was 100 μl/well Xceptor TNFRSF1B::anti-HIL6 samples, positive control anti-human IL-6R(R&D Systems, Minneapolis, Minn.) and negative controls human IgG or human gp130-Fc chimera (R&D Systems), each serially diluted three-fold in Working buffer starting at 300 ng/ml, the plate was covered, and incubated at room temperature for about 1 to 2 hours. After washing the plate five times with PBS-T, added in duplicate wells was 100 μl/well recombinant human sIL-6R(R&D Systems) from a 75 pM solution in Working buffer, the plate was covered, and incubated at room temperature for about 1 to 2 hours. After washing the plate five times with PBS-T, added 100 μl/well anti-human IL-6R-biotin (R&D Systems) from a 100 ng/ml solution in Working buffer, the plate was covered, and incubated at room temperature for about 1 to 2 hours. After washing the plate five times with PBS-T, 100 μl per well horse radish peroxidase-conjugated streptavidin (Zymed, San Francisco, Calif.) diluted 1:4,000 in Working buffer was added, the plate was covered, and incubated at room temperature for 30 minutes. After washing the plate six times with PBS-T, 100 μl per well 3,3,5,5-tetramentylbenzidine (TMB) substrate solution (Pierce, Rockford, Ill.) was added for about 3 to 5 minutes and then the reaction was stopped with 50 μl Stop buffer (1N H₂SO₄) per well. The absorbance of each well was read at 450 nm.

Row | Binder | binding result (recombinant human TNF-α) | binding result [1]
1 | B1 | binds | –
2 | B2 | – | no binding (tested: Xceptor from 300 ng/ml; sIL-6R 75 pM)
